Experimental data reported in paper PMC4352398.

Assays:
[1] = target: constitutively active Flag-Rab4 variant (Drosophila); assay: co-IP
[2] = target: dominant negative Flag-Rab4 variant (Drosophila); assay: co-IP

fold stronger association than with wild type Flag-Rab4 [1]: 3.26 fold | fold weaker association than with wild type Flag-Rab4 [2]: 2.88 fold
B1: Myc-RhoGAP68F (natural protein)
chain: MDAHSRFAPRLPGPAINPIVDNSDEPQPSLSDLHDFEPKLEFDDTELLAPSPLEKDVMVGDFVLAEDPELEPEEDVNPLEDDFEDQLREQSENFQTPRNKCDFLGTDKQGRHIFGIYASRFPEKSQLEGFVREIIKEIEPFVENDYILVYFHQGLKEDNKPSAQFLWNSYKELDRNFRKNLKTLYVVHPTWFIRVIWNFFSPFISDKFRKKLVYISSLDELRQALGLNKLKLPDNICDLDDKLNPSRKPSTPPPSSNINASRQQQHKMATTHQFGVPLKFIVMNSPCLNSIPPIVRKCVDSLSITGVIDTEGIFRRSGNHSEIMALKERVNRGEDVDLKSVNVHVIAGLLKSFLRDLAEPLLTFELYEDVTGFLDWPKEERSRNVTQLIREKLPEENYELFKYIVEFLVRVMDCEDLNKMTSSNLAIVFGPNFLWSRSTSTSLEEIAPINAFVDFVLQNHKDIYLIDVNQRTVSVD
